# Source: patent US6562591
# B1: HA-Tnik(WT), full length human Tnik isoform 1 with N-terminal HA epitope tag (protein)
# chain: AYPYDVPDYAMASDSPARSLDEIDLSALRDPAGIFELVELVGNGTYGQVYKGRHVKTGQLAAIKVMDVTGDEEEEIKQEINMLKKYSHHRNIATYYGAFIKKNPPGMDDQLWLVMEFCGAGSVTDLIKNTKGNTLKEEWIAYICREILRGLSHLHQHKVIHRDIKGQNVLLTENAEVKLVDFGVSAQLDRTVGRRNTFIGTPYWMAPEVIACDENPDATYDFKSDLWSLGITAIEMAEGAPPLCDMHPMRALFLIPRNPAPRLKSKKWSKKFQSFIESCLVKNHSQRPATEQLMKHPFIRDQPNERQVRIQLKDHIDRTKKKRGEKDETEYEYSGSEEEEEENDSGEPSSILNLPGESTLRRDFLRLQLANKERSEALRRQQLEQQQRENEEHKRQLLAERQKRIEEQKEQRRRLEEQQRREKELRKQQEREQRRHYEEQMRREEERRRAEHEQEYIRRQLEEEQRQLEILQQQLLHEQALLLEYKRKQLEEQRQAERLQRQLKQERDYLVSLQHQRQEQRPVEKKPLYHYKEGMSPSEKPAWAKEVEERSRLNRQSSPAMPHKVANRISDPNLPPRSESFSISGVQPARTPPMLRPVDPQIPHLVAVKSQGPALTASQSVHEQPTKGLSGFQEALNVTSHRVEMPRQNSDPTSENPPLPTRIEKFDRSSWLRQEEDIPPKVPQRTTSISPALARKNSPGNGSALGPRLGSQPIRASNPDLRRTEPILESPLQRTSSGSSSSSSTPSSQPSSQGGSQPGSQAGSSERTRVRANSKSEGSPVLPHEPAKVKPEESRDITRPSRPASYKKAIDEDLTALAKELRELRIEETNRPMKKVTDYSSSSEESESSEEEEEDGESETHDGTVAVSDIPRLIPTGAPGSNEQYNVGMVGTHGLETSHADSFSGSISREGTLMIRETSGEKKRSGHSDSNGFAGHINLPDLVQQSHSPAGTPTEGLGRVSTHSQEMDSGTEYGMGSSTKASFTPFVDPRVYQTSPTDEDEEDEESSAAALFTSELLRQEQAKLNEARKISVVNVNPTNIRPHSDTPEIRKYKKRFNSEILCAALWGVNLLVGTENGLMLLDRSGQGKVYNLINRRRFQQMDVLEGLNVLVTISGKKNKLRVYYLSWLRNRILHNDPEVEKKQGWITVGDLEGCIHYKVVKYERIKFLVIALKNAVEIYAWAPKPYHKFMAFKSFADLQHKPLLVDLTVEEGQRLKVIFGSHTGFHVIDVDSGNSYDIYIPSHIQGNITPHAIVILPKTDGMEMLVCYEDEGVYVNTYGRITKDVVLQWGEMPTSVAYIHSNQIMGWGEKAIEIRSVETGHLDGVFMHKRAQRLKFLCERNDKVFFASVRSGGSSQVFFMTLNRNSMMNW
# B2: HA-Tnik(KM), kinase mutant form of Tnik with N-terminal HA epitope tag (protein)
# chain: AYPYDVPDYAMASDSPARSLDEIDLSALRDPAGIFELVELVGNGTYGQVYKGRHVKTGQLAAIRVMDVTGDEEEEIKQEINMLKKYSHHRNIATYYGAFIKKNPPGMDDQLWLVMEFCGAGSVTDLIKNTKGNTLKEEWIAYICREILRGLSHLHQHKVIHRDIKGQNVLLTENAEVKLVDFGVSAQLDRTVGRRNTFIGTPYWMAPEVIACDENPDATYDFKSDLWSLGITAIEMAEGAPPLCDMHPMRALFLIPRNPAPRLKSKKWSKKFQSFIESCLVKNHSQRPATEQLMKHPFIRDQPNERQVRIQLKDHIDRTKKKRGEKDETEYEYSGSEEEEEENDSGEPSSILNLPGESTLRRDFLRLQLANKERSEALRRQQLEQQQRENEEHKRQLLAERQKRIEEQKEQRRRLEEQQRREKELRKQQEREQRRHYEEQMRREEERRRAEHEQEYIRRQLEEEQRQLEILQQQLLHEQALLLEYKRKQLEEQRQAERLQRQLKQERDYLVSLQHQRQEQRPVEKKPLYHYKEGMSPSEKPAWAKEVEERSRLNRQSSPAMPHKVANRISDPNLPPRSESFSISGVQPARTPPMLRPVDPQIPHLVAVKSQGPALTASQSVHEQPTKGLSGFQEALNVTSHRVEMPRQNSDPTSENPPLPTRIEKFDRSSWLRQEEDIPPKVPQRTTSISPALARKNSPGNGSALGPRLGSQPIRASNPDLRRTEPILESPLQRTSSGSSSSSSTPSSQPSSQGGSQPGSQAGSSERTRVRANSKSEGSPVLPHEPAKVKPEESRDITRPSRPASYKKAIDEDLTALAKELRELRIEETNRPMKKVTDYSSSSEESESSEEEEEDGESETHDGTVAVSDIPRLIPTGAPGSNEQYNVGMVGTHGLETSHADSFSGSISREGTLMIRETSGEKKRSGHSDSNGFAGHINLPDLVQQSHSPAGTPTEGLGRVSTHSQEMDSGTEYGMGSSTKASFTPFVDPRVYQTSPTDEDEEDEESSAAALFTSELLRQEQAKLNEARKISVVNVNPTNIRPHSDTPEIRKYKKRFNSEILCAALWGVNLLVGTENGLMLLDRSGQGKVYNLINRRRFQQMDVLEGLNVLVTISGKKNKLRVYYLSWLRNRILHNDPEVEKKQGWITVGDLEGCIHYKVVKYERIKFLVIALKNAVEIYAWAPKPYHKFMAFKSFADLQHKPLLVDLTVEEGQRLKVIFGSHTGFHVIDVDSGNSYDIYIPSHIQGNITPHAIVILPKTDGMEMLVCYEDEGVYVNTYGRITKDVVLQWGEMPTSVAYIHSNQIMGWGEKAIEIRSVETGHLDGVFMHKRAQRLKFLCERNDKVFFASVRSGGSSQVFFMTLNRNSMMNW
# Target: Gelsolin (Sigma)
row,Protein,phosphorylation of Gelsolin in an in vitro kinase assay
1,B1,"Wild type Tnik, but not the kinase mutant form of Tnik, phosphorylated Gelsolin in vitro"
2,B2,"Wild type Tnik, but not the kinase mutant form of Tnik, phosphorylated Gelsolin in vitro"
